The source of these data is the supplement of paper PMC11246515.

± gives the standard deviation of the averaged measurements.

The series can be described thus: total protein half-life in vivo (active degradation + dilution); higher = more stable protein.
[1] abbreviates: E. coli NCM3722 delta-clpP delta-lon delta-hslV, growth: N-lim chemostat, doubling time 6 h.
Setting [2] is: E. coli NCM3722 delta-hslV, growth: N-lim chemostat, doubling time 6 h.
Setting [3] is: E. coli NCM3722 delta-smpB, growth: N-lim chemostat, doubling time 6 h.
[4] abbreviates: wild type E. coli NCM3722, growth: C-lim chemostat, doubling time 3 h.
Setting [5] is: wild type E. coli NCM3722, growth: C-lim chemostat, doubling time 12 h.
Where [6] appears, read: wild type E. coli NCM3722, growth: N-lim chemostat, doubling time 6 h.
[7] abbreviates: wild type E. coli NCM3722, growth: N-lim chemostat, doubling time 12 h.
[8] abbreviates: wild type E. coli NCM3722, growth: P-lim chemostat, doubling time 6 h.
The mark [9] stands for this setting: wild type E. coli NCM3722, growth: P-lim chemostat, doubling time 12 h.
[10] abbreviates: wild type E. coli NCM3722, growth: C-lim chemostat, doubling time 6 h.
[11] abbreviates: E. coli NCM3722 delta-clpP, growth: N-lim chemostat, doubling time 6 h.
Where [12] appears, read: E. coli NCM3722 delta-lon, growth: N-lim chemostat, doubling time 6 h.

Turning to “MRFLLGVLMLMISGSALATIDVLQFKDEAQEQQFRQLTEELRCPKCQNNSIADSNSMIATDLRQKVYELMQEGKSKKEIVDYMVARYGNFVTYDPPLTPLTVLLWVLPVVAIGIGGWVIYARSRRRVRVVPEAFPEQSVPEGKRAGYVVYLPGIVVALIVAGVSYYQTGNYQQVKIWQQATAQAPALLDRALDPKADPLNEEEMSRLALGMRTQLQKNPGDIEGWIMLGRVGMALGNASIATDAYATAYRLDPKNSDAALGYAEALTRSSDPNDNRLGGELLRQLVRTDHSNIRVLSMYAFNAFEQQRFGEAVAAWEMMLKLLPANDTRRAVIERSIAQAMQHLSPQESK [P0ABM9]”, the “total protein half-life in vivo” value under setting [1] is 3.85 ± 0.42 h; the “total protein half-life in vivo” value under setting [2] is 3.5 ± 0.5 h; the “total protein half-life in vivo” value under setting [3] was found to be 3.32 ± 0.057 h; the “total protein half-life in vivo” value under setting [4] is 3.26 ± 0.15 h; the “total protein half-life in vivo” value under setting [5] worked out at 9.451 ± 0.016 h; the “total protein half-life in vivo” value under setting [6] worked out at 3.8 ± 0.21 h. The “total protein half-life in vivo” value is, setting by setting: under setting [7], 5.979 ± 0.034 h; under setting [8], 3.91 ± 0.59 h; under setting [9], 6.58 ± 1.2 h.

In the case of “MNSLYTAEGVMDKHSLWQRYVPLVRHEALRLQVRLPASVELDDLLQAGGIGLLNAVERYDALQGTAFTTYAVQRIRGAMLDELRSRDWVPRSVRRNAREVAQAIGQLEQELGRNATETEVAERLGIDIADYRQMLLDTNNSQLFSYDEWREEHGDSIELVTDDHQRENPLQQLLDSNLRQRVMEAIETLPEREKLVLTLYYQEELNLKEIGAVLEVGESRVSQLHSQAIKRLRTKLGKL [P0AEM6]”, the “total protein half-life in vivo” value is, setting by setting: under setting [1], 4.94 h; under setting [4], 1.78 ± 0.19 h; under setting [10], 2.5 ± 0.38 h; under setting [5], 3 ± 0.9 h.

In the case of “MSIVVKNNIHWVGQRDWEVRDFHGTEYKTLRGSSYNSYLIREEKNVLIDTVDHKFSREFVQNLRNEIDLADIDYIVINHAEEDHAGALTELMAQIPDTPIYCTANAIDSINGHHHHPEWNFNVVKTGDTLDIGNGKQLIFVETPMLHWPDSMMTYLTGDAVLFSNDAFGQHYCDEHLFNDEVDQTELFEQCQRYYANILTPFSRLVTPKITEILGFNLPVDMIATSHGVVWRDNPTQIVELYLKWAADYQEDRITIFYDTMSNNTRMMADAIAQGIAETDPRVAVKIFNVARSDKNEILTNVFRSKGVLVGTSTMNNVMMPKIAGLVEEMTGLRFRNKRASAFGSHGWSGGAVDRLSTRLQDAGFEMSLSLKAKWRPDQDALKLCREHGREIARQWALAPLPQSTVNTVVKEETSATTTADLGPRMQCSVCQWIYDPAKGEPMQDVAPGTPWSEVPDNFLCPECSLGKDVFEELASEAK”, the “total protein half-life in vivo” value was 5.32 ± 0.78 h under setting [1]; 3.24 h under setting [11]; 1.57 h under setting [3]; 2.75 h under setting [6]; 10.1 ± 7.1 h under setting [9].

Regarding “MRLAPLYRNALLLTGLLLSGIAAVQAADWPRQITDSRGTHTLESQPQRIVSTSVTLTGSLLAIDAPVIASGATTPNNRVADDQGFLRQWSKVAKERKLQRLYIGEPSAEAVAAQMPDLILISATGGDSALALYDQLSTIAPTLIINYDDKSWQSLLTQLGEITGHEKQAAERIAQFDKQLAAAKEQIKLPPQPVTAIVYTAAAHSANLWTPESAQGQMLEQLGFTLAKLPAGLNASQSQGKRHDIIQLGGENLAAGLNGESLFLFAGDQKDADAIYANPLLAHLPAVQNKQVYALGTETFRLDYYSAMQVLDRLKALF [P0AEL6]”, the “total protein half-life in vivo” value under setting [1] came out at 3.63 ± 0.44 h; the “total protein half-life in vivo” value under setting [11] was found to be 4.68 ± 0.25 h; the “total protein half-life in vivo” value under setting [2] was 5.13 h; the “total protein half-life in vivo” value under setting [3] came out at 5.5 ± 0.95 h; the “total protein half-life in vivo” value under setting [4] is above 4 h; the “total protein half-life in vivo” value under setting [10] was determined as 5.29 ± 0.068 h. For the same sequence, the “total protein half-life in vivo” value by setting is: under setting [5], 11.5 ± 3.5 h; under setting [6], 5.62 ± 0.55 h; under setting [7], 10.4 ± 3 h; under setting [8], 6.51 ± 0.24 h.

With “MSVIGRIHSFESCGTVDGPGIRFITFFQGCLMRCLYCHNRDTWDTHGGKEVTVEDLMKEVVTYRHFMNASGGGVTASGGEAILQAEFVRDWFRACKKEGIHTCLDTNGFVRRYDPVIDELLEVTDLVMLDLKQMNDEIHQNLVGVSNHRTLEFAKYLANKNVKVWIRYVVVPGWSDDDDSAHRLGEFTRDMGNVEKIELLPYHELGKHKWVAMGEEYKLDGVKPPKKETMERVKGILEQYGHKVMF [P0A9N4]”, the “total protein half-life in vivo” value under setting [1] is 4.86 ± 0.073 h; the “total protein half-life in vivo” value under setting [11] turned out to be 5.05 ± 1.6 h; the “total protein half-life in vivo” value under setting [2] was 5.08 ± 0.1 h; the “total protein half-life in vivo” value under setting [12] was 4.485 ± 0.029 h; the “total protein half-life in vivo” value under setting [3] is 3.9 ± 0.28 h; the “total protein half-life in vivo” value under setting [4] is 2.9 ± 0.1 h. For the same sequence, the “total protein half-life in vivo” value under setting [10] is 5.48 ± 1 h; the “total protein half-life in vivo” value under setting [5] turned out to be 9.78 ± 0.27 h; the “total protein half-life in vivo” value under setting [6] was 4.41 ± 0.36 h; the “total protein half-life in vivo” value under setting [7] is 6.62 ± 0.36 h; the “total protein half-life in vivo” value under setting [8] was 4.78 ± 0.3 h; the “total protein half-life in vivo” value under setting [9] worked out at 10.1 ± 0.91 h.

Regarding “MKQLTILGSTGSIGCSTLDVVRHNPEHFRVVALVAGKNVTRMVEQCLEFSPRYAVMDDEASAKLLKTMLQQQGSRTEVLSGQQAACDMAALEDVDQVMAAIVGAAGLLPTLAAIRAGKTILLANKESLVTCGRLFMDAVKQSKAQLLPVDSEHNAIFQSLPQPIQHNLGYADLEQNGVVSILLTGSGGPFRETPLRDLATMTPDQACRHPNWSMGRKISVDSATMMNKGLEYIEARWLFNASASQMEVLIHPQSVIHSMVRYQDGSVLAQLGEPDMRTPIAHTMAWPNRVNSGVKPLDFCKLSALTFAAPDYDRYPCLKLAMEAFEQGQAATTALNAANEITVAAFLAQQIRFTDIAALNLSVLEKMDMREPQCVDDVLSVDANAREVARKEVMRLAS”, the “total protein half-life in vivo” value reads like this: under setting [1], 4.22 ± 0.36 h; under setting [11], 3.69 ± 0.044 h; under setting [2], 4.05 ± 0.23 h; under setting [12], 3.93 ± 0.36 h; under setting [3], 3.84 ± 0.34 h; under setting [4], 2.81 ± 0.21 h. Further, the “total protein half-life in vivo” value stood at 5.32 ± 0.24 h under setting [10]; 9.19 ± 0.66 h under setting [5]; 3.64 ± 0.13 h under setting [6]; 5.81 ± 0.34 h under setting [7]; 5.88 ± 0.068 h under setting [8]; 9.74 ± 0.61 h under setting [9].

Regarding “MSGSNTAISRRRLLQGAGAMWLLSVSQVSLAAVSQVVAVRVWPASSYTRVTVESNRQLKYKQFALSNPERVVVDIEDVNLNSVLKGMAAQIRADDPFIKSARVGQFDPQTVRMVFELKQNVKPQLFALAPVAGFKERLVMDLYPANAQDMQDPLLALLEDYNKGDLEKQVPPAQSGPQPGKAGRDRPIVIMLDPGHGGEDSGAVGKYKTREKDVVLQIARRLRSLIEKEGNMKVYMTRNEDIFIPLQVRVAKAQKQRADLFVSIHADAFTSRQPSGSSVFALSTKGATSTAAKYLAQTQNASDLIGGVSKSGDRYVDHTMFDMVQSLTIADSLKFGKAVLNKLGKINKLHKNQVEQAGFAVLKAPDIPSILVETAFISNVEEERKLKTATFQQEVAESILAGIKAYFADGATLARRG”, the “total protein half-life in vivo” value under setting [1] is 4.83 ± 0.39 h; the “total protein half-life in vivo” value under setting [11] amounted to 5.68 ± 1.5 h; the “total protein half-life in vivo” value under setting [2] was determined as 5.1 ± 0.2 h; the “total protein half-life in vivo” value under setting [12] amounted to 5.12 ± 0.18 h; the “total protein half-life in vivo” value under setting [3] is 4.18 ± 0.3 h; the “total protein half-life in vivo” value under setting [4] turned out to be 2.74 ± 0.23 h. Moreover, the “total protein half-life in vivo” value runs as follows: under setting [10], 4.852 ± 0.02 h; under setting [5], 9.06 ± 0.98 h; under setting [6], 5.19 ± 1.1 h; under setting [7], 8.626 ± 0.061 h; under setting [8], 5.29 ± 0.18 h; under setting [9], 10.4 ± 0.28 h.

As to “MAETKIVVGPQPFSVGEEYPWLAERDEDGAVVTFTGKVRNHNLGDSVNALTLEHYPGMTEKALAEIVDEARNRWPLGRVTVIHRIGELWPGDEIVFVGVTSAHRSSAFEAGQFIMDYLKTRAPFWKREATPEGDRWVEARESDQQAAKRW”, the “total protein half-life in vivo” value reads like this: under setting [1], 4.68 ± 0.7 h; under setting [11], 3.99 ± 0.26 h; under setting [2], 5.32 ± 0.47 h; under setting [12], 4.42 ± 0.088 h; under setting [3], 3.5 ± 0.33 h; under setting [4], 2.7 ± 0.15 h. Further, the “total protein half-life in vivo” value runs as follows: under setting [10], 5.78 ± 0.33 h; under setting [5], 8.46 ± 0.13 h; under setting [6], 4.573 ± 0.012 h; under setting [7], 6.78 h; under setting [8], 6.8 ± 1.3 h; under setting [9], 11.1 ± 0.62 h.
